From publication PMC12412624, “Engineered Cas12j‐8 is a Versatile Platform for Multiplexed Genome Modulation in Mammalian Cells” come the findings set out here.

Common to all, as to conditions: HEK293T cells; panel 1c (compare within a panel only); scale: mean GFP / mean GFP of wild type, printed, no background subtraction
The subject of data set [1] is T1, dCas12j-8 E119R E119R;D369A;E567A;D658A (bacteriophage (metagenome)).
T1 sequence: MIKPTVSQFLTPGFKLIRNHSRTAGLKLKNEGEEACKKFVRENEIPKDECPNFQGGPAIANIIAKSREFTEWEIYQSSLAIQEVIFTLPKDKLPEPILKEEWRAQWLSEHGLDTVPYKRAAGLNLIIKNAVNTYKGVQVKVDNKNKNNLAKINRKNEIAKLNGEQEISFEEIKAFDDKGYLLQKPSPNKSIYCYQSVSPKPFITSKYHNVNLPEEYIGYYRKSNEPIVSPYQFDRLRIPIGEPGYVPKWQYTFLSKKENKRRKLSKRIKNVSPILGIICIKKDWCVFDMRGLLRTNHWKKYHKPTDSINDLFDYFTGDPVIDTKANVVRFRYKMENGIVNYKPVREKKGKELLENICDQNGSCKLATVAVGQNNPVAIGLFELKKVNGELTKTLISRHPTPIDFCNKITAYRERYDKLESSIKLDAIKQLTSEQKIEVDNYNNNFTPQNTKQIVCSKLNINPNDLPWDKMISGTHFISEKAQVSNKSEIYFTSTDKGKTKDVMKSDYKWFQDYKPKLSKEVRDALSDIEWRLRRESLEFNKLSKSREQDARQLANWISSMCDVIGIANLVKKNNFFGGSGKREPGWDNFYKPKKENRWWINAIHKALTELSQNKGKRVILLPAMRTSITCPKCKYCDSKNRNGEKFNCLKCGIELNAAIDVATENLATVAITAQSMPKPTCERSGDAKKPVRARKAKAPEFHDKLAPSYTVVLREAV

For data set [2], the system named is T2, dCas12j-8 E419R E419R;D369A;E567A;D658A (bacteriophage (metagenome)).
T2 sequence: T1 sequence with R119E, E419R

The subject of data set [3] is T3, dCas12j-8 D523R D523R;D369A;E567A;D658A (bacteriophage (metagenome)).
T3 sequence: T1 sequence with R119E, D523R

For data set [4], the system named is T4, dCas12j-8 D512R D512R;D369A;E567A;D658A (bacteriophage (metagenome)).
T4 sequence: T1 sequence with R119E, D512R

Where a chain is given by its changes, count along the chain named.

For the sequence “CUUUCAAGACUAAUAGAUUGCUCCUUACGAGGAGACACUCCCUAUCAGUGAUAGAG / TTNACTCCCTATCAGTGATAGAG / CTCTATCACTGATAGGGAGTNAA [TetO]”, the binding signal amounted to 1.08 in data set [1], 0.894 in data set [2], 1.32 in data set [3] and 1.07 in data set [4].
